Here are results for three molecules from US20170073408A1 (Amgen, published 2017).

First the molecules themselves.
B1: anti-activin A monoclonal antibody A1 (antibody, human IgG2, lambda, V domains shown)
VH: QVQLVQSGAEVKKPGASVKVSCKASGYTFTSYGLSWVRQAPGQGLEWMGWIIPYNGNTNSAQKLQGRVTMTTDTSTSTAYMELRSLRSDDTAVYFCARDRDYGVNYDAFDIWGQGTMVTVSS
VL: not shown
notes: Fully human antibody from XenoMouse hybridoma (strains giving IgG2 kappa or IgG4 kappa); also called L1H1; Mab A1
B2: anti-activin A monoclonal antibody A2 (antibody, human IgG2, kappa, V domains shown)
VH: QVQLVESGGGVVQPGRSLRLSCAASGFTFSSYGMHWVRQAPGKGLEWVAVIWYDGSNKYHADSVKGRFTISRDNSKNTLYLQVNSLRAEDTAVYYCVRSRNWNYDNYYYGLDVWGQGTTVTVSS
VL: DIQMTQSPSSLSASVGDRVTITCRASQGIRNNLGWYQQKPGKAPKRLIYAASSLQSGVPSRFSGSGSGTEFTLTISSLQPEDFTTYYCLQHNSYPWTFGQGTKVEIKR
notes: Fully human antibody from XenoMouse hybridoma; also called L2H2
B3: recombinant human activin A (mature) (ligand)
chain: GLECDGKVNICCKKQFFVSFKDIGWNDWIIAPSGYHANYCEGECPSHIAGTSGSSLSFHSTVINHYRMRGHSPFANLKSCCVPTKLRPMSMLYYDDGQNIIKKDIQNMIVEECGCS
notes: also called r-HuActivin A; rhActivin A

The target in experiment [1] is B3. The experiment is described as follows: BIAcore blocking assay, 1 nM activin A; competitor rhActivin RIIB/Fc chimera on chip. The method, then:
(§1) Blocking assays were conducted on immobilized recombinant human activin RIB-Fc chimera surfaces, recombinant human activin RIIB-Fc chimera surfaces, and recombinant human RIIA-Fc chimera recombinant surfaces, as described in Example 5. Monoclonal antibodies A1, A2, AKA1, and AKA2 on each chimera surface were incubated with 1 nM activin A, and the relative binding response (%) was measured.

The target in another experiment is T1, activin B (UniProt P09529 293-407).
T1 construct: Bought (R & D Systems)
T1 sequence (looked up): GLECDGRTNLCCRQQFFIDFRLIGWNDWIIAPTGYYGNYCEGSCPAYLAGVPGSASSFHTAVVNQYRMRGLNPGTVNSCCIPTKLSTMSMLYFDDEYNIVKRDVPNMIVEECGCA
The experiment can be described thus: affinity analysis of Example 15 (antibody immobilized on a surface).

A further experiment concerns the target T2, A/B13-39.
T2 construct: also called Activin A 13/39 B
T2 activin A/B chimeric subunit: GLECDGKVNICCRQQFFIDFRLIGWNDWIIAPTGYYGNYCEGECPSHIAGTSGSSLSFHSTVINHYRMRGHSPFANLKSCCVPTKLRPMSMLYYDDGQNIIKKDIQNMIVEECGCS
The experiment can be described thus: Biacore blocking: 100 nM antibody + diluted conditioned medium (CM) of the ligand over ActRIB-Fc surface.

The target of experiment [2] is B3. The experiment is described as follows: Biacore blocking: 1 nM Activin A + antibody over rhActRIB-Fc chimera surface. No unit in the drawn table; M by Table 7, which prints this value rounded as 0.29 nM.
In experiment [3] the target is B3. The experiment is described as follows: affinity analysis of Example 15 (method of the KD not given).
The target of experiment [4] is B3. The experiment is described as follows: BIAcore blocking assay, 1 nM activin A; competitor rhActivin RIB/Fc chimera on chip. The method, then:
as §1

For experiment [5], the target named is B3. The experiment can be described thus: cell-based or functional assay.
Experiment [6] has as its target B3. The experiment is described as follows: BIAcore blocking assay, 1 nM activin A; competitor rhActivin RIIA/Fc chimera on chip. The method, then: as §1
Another experiment deals with T3, GDF-11 (UniProt O95390 299-407).
T3 construct: Bought
T3 sequence (looked up): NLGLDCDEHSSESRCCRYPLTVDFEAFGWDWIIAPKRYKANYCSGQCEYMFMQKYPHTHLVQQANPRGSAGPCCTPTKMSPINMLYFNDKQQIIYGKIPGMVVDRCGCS
The experiment can be described thus: BIAcore, antibody pre-incubated with ligand, ActRIIB/Fc on chip. The method, then:
(§2) These assays were performed using BlAcore® technology, to determine the selectivity of binding of antibodies A1, A2 and A3 to various activins and other TGF-β family members, including activin A, activin B, activin AB, inhibin A, GDF-8, GDF-11, TGF-β-1, TGF-β-3, and BMP4 (all from R & D Systems). […] Because BlAcore assays detect changes in the refractive index, the difference between the response detected with injection over the immobilized receptor surfaces compared with the response detected with injection over the control surface in the absence of any antibody represents the actual binding of the various ligands to the receptor. With pre-incubation of antibodies and activin and TGF-β molecules, a change (increase or decrease) in binding response indicates antibody binding to the TGFβ family of molecules. The antibodies all bound to activin A but not to activin B, GDF-8, GDF-11, TGF-β-1, TGF-β-3, and BMP4, thus indicating specificity for activin A.

A further experiment addresses T4, TGF-β-3 (UniProt P10600 301-412).
T4 construct: Bought
T4 sequence (looked up): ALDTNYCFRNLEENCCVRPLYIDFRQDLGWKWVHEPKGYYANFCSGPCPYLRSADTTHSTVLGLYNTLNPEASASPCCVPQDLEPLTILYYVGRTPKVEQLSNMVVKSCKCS
The description is as above. The method, then: as §2

For a further experiment, the target named is T5, TGF-β-1 (UniProt P01137 279-390).
T5 construct: Bought
Described as above. The method, then: as §2

The target in another experiment is T6, BMP4 (UniProt P12644 293-408).
T6 construct: Bought
T6 sequence (looked up): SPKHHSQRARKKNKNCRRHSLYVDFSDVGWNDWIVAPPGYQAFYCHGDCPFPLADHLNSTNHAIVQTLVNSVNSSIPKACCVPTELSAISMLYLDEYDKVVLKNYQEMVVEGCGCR
The experiment is described as above. The method, then:
as §2

Another experiment addresses T7, GDF-8 (UniProt O14793 267-375).
T7 construct: Bought
T7 sequence (looked up): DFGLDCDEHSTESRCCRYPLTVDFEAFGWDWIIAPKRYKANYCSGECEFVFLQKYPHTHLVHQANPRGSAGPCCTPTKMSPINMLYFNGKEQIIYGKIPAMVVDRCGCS
The experiment is described as above. The method, then:
as §2

The target in experiment [7] is B3. The experiment is described as follows: Biacore blocking: 1 nM Activin A + antibody over rhActRIB-Fc chimera surface. No unit in the drawn table; M by Table 7, which prints this value rounded as 0.18 nM.
Experiment [8] deals with B3. The experiment can be described thus: KinExA solution equilibrium, activin A-coated beads. The method, then:
(§3) Solution-based equilibrium-binding assays using KinExA™ technology (Sapidyne Instruments, Inc.) were used to determine the dissociation equilibrium (KD) of activin A binding to antibody molecules. This solution-based assay is considered to be more sensitive than the BIAcore assay in some instances. Reacti-Gel™ 6× was pre-coated with about 50 μg/ml activin A overnight, and then blocked with BSA. 30 pM and 100 pM of antibody samples were incubated with various concentrations (0.5 pM to 5 nM) of activin A in sample buffer at room temperature for 8 hours before being run through the activin A-coated beads. The amount of the bead-bound antibody was quantified by fluorescent (Cy5) labeled goat anti-human-Fc antibody at 1 mg/ml in superblock. The binding signal was proportional to the concentration of free antibody at equilibrium with a given activin A concentration. KD was obtained from the nonlinear regression of the competition curves using a dual-curve one-site homogeneous binding model provided in the KinEx ATM software (Sapidyne Instruments, Inc.). […] A2 and A3 bound to activin A at ˜15 pM and ˜8 pM, respectively.

In experiment [9] the target is B3. The experiment is described as follows: Biacore: 1 nM Activin A + sample over rhActivin RIIB/Fc Chimera surface; rising ('carry on') curve. The method, then: as §1
The target of experiment [10] is B2. The experiment is described as follows: KinExA solution equilibrium, antibody A2 (A30) fixed at 30 pM. The method, then:
as §3

For experiment [11], the target named is B1. The experiment is described as follows: KinExA solution equilibrium, antibody A1 (A52) fixed at 30 pM. The method, then: as §3
The target in experiment [12] is T8, A31-2.
T8 construct: bars A52-1, A31-2, A30-2) make A3 likely; not assigned here
The experiment can be described thus: KinExA solution equilibrium, antibody A31 fixed at 100 pM. The method, then:
as §3

The target in experiment [13] is B2. The experiment can be described thus: KinExA solution equilibrium, antibody A2 (A30) fixed at 100 pM. The method, then:
as §3

Experiment [14] addresses T8, A31-2. The experiment can be described thus: KinExA solution equilibrium, antibody A31 fixed at 30 pM. The method, then: as §3
Experiment [15] has as its target B1. The experiment is described as follows: KinExA solution equilibrium, antibody A1 (A52) fixed at 100 pM. The method, then: as §3

T5 sequence (P01137 279-390 limits assumed): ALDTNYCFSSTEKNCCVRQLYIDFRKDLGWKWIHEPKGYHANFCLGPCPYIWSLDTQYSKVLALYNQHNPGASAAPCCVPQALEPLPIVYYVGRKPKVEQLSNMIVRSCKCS

Take B1: the EC50 in [1], in experiment [2], in [4] and in experiment [6] was 0.29 nM each time. Further, the binding result was “no binding” with activin B; “no binding (tested: 100 nM)” with A/B13-39; “no binding” with GDF-11; “no binding” with TGF-β-3; “no binding” with TGF-β-1; “no binding” with BMP4. In the experiment with GDF-8, the binding result is “no binding”. For the same molecule, the Kd in experiment [3] is around 0.003 nM. The “Cell IC50 (nM); luciferase activity of C2C12/pMARE reporter cells, activin A fixed at 4 nM” value in experiment [5] is below 3 nM.
Take B2: the binding result is listed as “no binding” with activin B; “binds” in the experiment with A/B13-39; “no binding” with GDF-11; “no binding” with TGF-β-3; “no binding” in the experiment with TGF-β-1; “no binding” with BMP4. In addition, the binding result with GDF-8 is given as “no binding”. Besides, the Kd is around 0.025 nM in [3] and around 0.015 nM in [8]. The EC50 in experiment [7] was 0.177 nM; in experiment [4], 0.18 nM. Further, in experiment [5], the “Cell IC50 (nM); luciferase activity of C2C12/pMARE reporter cells, activin A fixed at 4 nM” value was below 3 nM. The “EC50 (read off the curve)” value in experiment [9] is around 1 nM.
For B3, the “IC50 (read off the curve)” value in experiment [10] was around 40 pM; in experiment [11], around 20 pM; with A31-2 [12] it was around 80 pM; in experiment [13], around 100 pM; with A31-2 [14], around 30 pM; in experiment [15], around 70 pM.
